Experiment [1] addresses human KLB and human FGFR1c co-expressed on HEK293/hKLB/hFGFR1c/SRE-luc cells (human) (UniProt Q86Z14). In words: FACS on stable HEK293 cells, secondary antibody alone; row shifted one column to the left (c4 = 293/hFGFR1c/hKLB).
Experiment [2] concerns the target full-length human FGFR1c on HEK293/hFGFR1c/SRE-luc cells (human) (UniProt P11362). In words: FACS on stable HEK293 cells, secondary antibody alone; row shifted one column to the left (c3 = 293/hFGFR1c).
The target of experiment [3] is mouse KLB and mouse FGFR1c co-expressed on HEK293/mKLB/mFGFR1c/SRE-Luc cells (mouse). Put plainly: FACS on stable HEK293 cells, secondary antibody alone; row shifted one column to the left (c5 = 293/mFGFR1c/mKLB).
Experiment [4] addresses human KLB and human FGFR1c co-expressed on HEK293/hKLB/hFGFR1c/SRE-luc cells (human) (UniProt Q86Z14). Put plainly: FACS on stable HEK293 cells, secondary antibody alone.
Experiment [5] concerns the target full-length human FGFR1c on HEK293/hFGFR1c/SRE-luc cells (human) (UniProt P11362). Described as above.
Experiment [6] concerns the target full-length human KLB on HEK293/hKLB/SRE-luc cells (human) (UniProt Q86Z14). The experiment is described as above.
For experiment [7], the target named is human KLB and human FGFR1c co-expressed on HEK293/hKLB/hFGFR1c/SRE-luc cells (human) (UniProt Q86Z14). Put plainly: FACS on stable HEK293 cells.
In experiment [8] the target is full-length human FGFR1c on HEK293/hFGFR1c/SRE-luc cells (human) (UniProt P11362). In words: FACS on stable HEK293 cells.
Experiment [9] deals with full-length human KLB on HEK293/hKLB/SRE-luc cells (human) (UniProt Q86Z14). In words: FACS on stable HEK293 cells.
The target in experiment [10] is full-length human FGFR1c on HEK293/hFGFR1c/SRE-luc cells (human) (UniProt P11362). Put plainly: cell-based or functional assay.
Experiment [11] addresses cell-surface human FGFR1c alone (amino acids 1-731 of NP_075594) on HEK293/hFGFR1c/SRE-Luc cells of Example 19 (human) (UniProt P11362). Put plainly: cell-based or functional assay.

Where “and” joins values, the source holds several entries; their conditions need not be identical. Equal entries are not always repeated.

human KLB and human FGFR1c co-expressed on HEK293/hKLB/hFGFR1c/SRE-luc cells (human), sequence (Q86Z14 whole entry, chain 1 of 2): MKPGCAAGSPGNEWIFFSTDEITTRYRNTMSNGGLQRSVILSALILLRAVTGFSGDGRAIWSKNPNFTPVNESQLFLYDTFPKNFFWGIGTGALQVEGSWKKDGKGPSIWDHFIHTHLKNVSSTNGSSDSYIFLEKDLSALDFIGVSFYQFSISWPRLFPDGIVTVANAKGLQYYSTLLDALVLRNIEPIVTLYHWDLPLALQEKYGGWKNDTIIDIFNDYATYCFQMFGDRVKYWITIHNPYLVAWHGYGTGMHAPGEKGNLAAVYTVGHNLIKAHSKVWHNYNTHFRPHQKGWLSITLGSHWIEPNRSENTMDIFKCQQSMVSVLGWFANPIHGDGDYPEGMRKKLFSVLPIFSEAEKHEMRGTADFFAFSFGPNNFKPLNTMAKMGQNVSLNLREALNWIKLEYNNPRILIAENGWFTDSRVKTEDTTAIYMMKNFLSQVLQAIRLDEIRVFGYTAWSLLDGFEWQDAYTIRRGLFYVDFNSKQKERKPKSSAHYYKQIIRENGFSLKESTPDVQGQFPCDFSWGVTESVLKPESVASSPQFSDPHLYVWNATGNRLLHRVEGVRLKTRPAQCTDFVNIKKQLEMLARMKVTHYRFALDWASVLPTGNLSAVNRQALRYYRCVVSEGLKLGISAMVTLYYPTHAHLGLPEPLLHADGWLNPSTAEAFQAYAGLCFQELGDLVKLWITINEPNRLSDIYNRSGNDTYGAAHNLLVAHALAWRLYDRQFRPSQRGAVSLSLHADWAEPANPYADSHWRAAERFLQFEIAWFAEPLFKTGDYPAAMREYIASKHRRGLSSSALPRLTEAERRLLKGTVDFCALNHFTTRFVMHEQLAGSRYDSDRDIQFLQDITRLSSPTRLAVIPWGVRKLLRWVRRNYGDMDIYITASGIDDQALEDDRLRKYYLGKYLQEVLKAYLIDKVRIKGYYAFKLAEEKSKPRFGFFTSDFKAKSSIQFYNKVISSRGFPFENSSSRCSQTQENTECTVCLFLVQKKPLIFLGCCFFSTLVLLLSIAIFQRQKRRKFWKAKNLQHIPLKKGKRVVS
human KLB and human FGFR1c co-expressed on HEK293/hKLB/hFGFR1c/SRE-luc cells (human), sequence (chain, as listed by the source limits assumed, chain 2 of 2): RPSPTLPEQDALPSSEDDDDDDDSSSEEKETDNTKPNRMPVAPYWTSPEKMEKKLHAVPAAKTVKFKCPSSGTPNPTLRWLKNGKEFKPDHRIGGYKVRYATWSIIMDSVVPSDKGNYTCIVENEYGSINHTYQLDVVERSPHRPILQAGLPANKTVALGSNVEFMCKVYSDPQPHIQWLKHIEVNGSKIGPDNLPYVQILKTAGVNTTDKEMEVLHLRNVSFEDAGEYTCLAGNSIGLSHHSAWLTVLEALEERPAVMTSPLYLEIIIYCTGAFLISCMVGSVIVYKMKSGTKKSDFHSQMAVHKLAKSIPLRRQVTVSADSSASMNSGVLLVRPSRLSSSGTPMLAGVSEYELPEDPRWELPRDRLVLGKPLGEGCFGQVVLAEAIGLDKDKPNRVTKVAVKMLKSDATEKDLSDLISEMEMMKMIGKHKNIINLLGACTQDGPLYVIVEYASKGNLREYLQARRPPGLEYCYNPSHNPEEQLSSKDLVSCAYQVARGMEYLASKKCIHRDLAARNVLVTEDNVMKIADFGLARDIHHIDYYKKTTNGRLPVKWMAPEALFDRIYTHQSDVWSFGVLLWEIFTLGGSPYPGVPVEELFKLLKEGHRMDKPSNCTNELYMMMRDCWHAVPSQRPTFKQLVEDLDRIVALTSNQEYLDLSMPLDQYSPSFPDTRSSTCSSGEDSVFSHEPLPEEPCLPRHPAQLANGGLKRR
full-length human KLB on HEK293/hKLB/SRE-luc cells (human), sequence (Q86Z14 whole entry): as the sequence (Q86Z14 whole entry, chain 1 of 2) above
full-length human FGFR1c on HEK293/hFGFR1c/SRE-luc cells (human), sequence (P11362 other isoform, or with tags, fused parts or gaps limits assumed): as the sequence (chain, as listed by the source limits assumed, chain 2 of 2) above
cell-surface human FGFR1c alone (amino acids 1-731 of NP_075594) on HEK293/hFGFR1c/SRE-Luc cells of Example 19 (human), sequence (P11362 22-822): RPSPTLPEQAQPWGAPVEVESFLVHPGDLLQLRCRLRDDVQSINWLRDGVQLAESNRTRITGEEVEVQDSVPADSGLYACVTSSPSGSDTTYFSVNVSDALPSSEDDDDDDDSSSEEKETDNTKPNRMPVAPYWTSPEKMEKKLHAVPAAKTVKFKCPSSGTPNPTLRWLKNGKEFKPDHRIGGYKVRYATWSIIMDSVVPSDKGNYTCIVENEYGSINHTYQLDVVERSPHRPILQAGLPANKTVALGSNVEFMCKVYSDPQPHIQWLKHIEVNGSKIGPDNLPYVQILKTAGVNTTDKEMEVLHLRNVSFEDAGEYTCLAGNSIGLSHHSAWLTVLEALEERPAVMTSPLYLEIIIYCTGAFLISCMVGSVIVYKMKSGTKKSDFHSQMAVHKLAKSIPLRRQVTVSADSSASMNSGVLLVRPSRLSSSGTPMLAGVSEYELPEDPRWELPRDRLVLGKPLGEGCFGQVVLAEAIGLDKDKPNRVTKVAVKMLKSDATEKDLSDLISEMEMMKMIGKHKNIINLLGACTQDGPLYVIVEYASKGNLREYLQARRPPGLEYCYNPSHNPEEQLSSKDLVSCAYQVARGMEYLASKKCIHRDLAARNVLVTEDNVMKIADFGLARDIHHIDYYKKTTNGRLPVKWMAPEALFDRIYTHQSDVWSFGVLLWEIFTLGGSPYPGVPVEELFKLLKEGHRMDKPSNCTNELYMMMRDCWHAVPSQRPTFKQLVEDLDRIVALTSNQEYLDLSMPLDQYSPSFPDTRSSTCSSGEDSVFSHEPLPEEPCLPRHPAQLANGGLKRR

With Anti-Human IgG Secondary Antibody, the MFI Ratio to unstained cells in experiment [1], in [2] and in [3] was 1 fold throughout. For the same substance, the binding ratio to unstained cells in experiment [4] stood at 1 fold; in experiment [5] it was 1 fold; in experiment [6], 2 fold.
Turning to Anti-Mouse IgG Secondary Antibody, the binding ratio to unstained cells in experiment [4], in [5] and in [6] was 1 fold in each case.
In the case of Irrelevant IgG control 1 (antibody), the binding ratio to unstained cells is 2 fold in experiment [7], 1 fold in [8] and 1 fold in experiment [9].
For Irrelevant IgG control 2 (antibody), the binding ratio to unstained cells in experiment [7], in [8] and in experiment [9] was 2 fold in each case.
For the substance “human FGF2 (hFGF2; R&D Systems, #233-FB/CF) (from UniProt P09038 143-288) (ligand)”, the EC50, SRE-luc activation by ligand in experiment [10] was 0.4 nM and 0.8 nM. In [11], this substance displayed an EC50, SRE-luc activation of 1.6 nM.

The values above are taken from US20170174769A1.
